The text below walks through data of US20040152179A1 (US Dept. of Health and Human Services, published 2004).

Assay [1] deals with diphtheria toxin receptor on Cos-7 cells (monkey kidney) (monkey) (UniProt Q09118). Description: cold competitor against I^125-labelled DT on Cos-7 cells; reference native DT.
Assay [2] addresses diphtheria toxin receptor on human cell lines (U251, HeLa, Jurkat) (human) (UniProt Q99075). In words: cell-based or functional assay.
Assay [3] concerns the target T1, DTR (diphtheria toxin receptor binding domain, codons 384-535 of DT), control protein (UniProt P00588 416-567).
T1 construct: range 384-535
In words: competition with I^125-labelled DT on Cos-7 cells.

For Bcl-xL-DTR, the fold lower affinity than native DT in assay [1] was 3 fold. The Apoptosis Prevention (%), HeLa cells, 0.2 uM STS, 2.17 uM Bcl-xL-DTR, 10 hrs in assay [2] was 32.4%.

B1: diphtheria toxin receptor on Cos-7 cells (monkey kidney) (receptor)
chain: DLQEADLDLLRVTLSSKPQALATPSKEEHGKRKKKGKGLGKKRDPCLRKYKDFCIHGECKYVKELRAPSCICHPGYHGERCHGLSL
notes: whole, on cells; also called DT receptor
For the molecule B1, in assay [3], the binding result is listed as “no binding”.
